Molecular target: high affinity IgE receptor (FcεR1) (human) (UniProt P12319)
Experiment: flow cytometry of purified human pDCs, mean over all assayed donors

high affinity IgE receptor (FcεR1) (human), sequence (P12319 26-257): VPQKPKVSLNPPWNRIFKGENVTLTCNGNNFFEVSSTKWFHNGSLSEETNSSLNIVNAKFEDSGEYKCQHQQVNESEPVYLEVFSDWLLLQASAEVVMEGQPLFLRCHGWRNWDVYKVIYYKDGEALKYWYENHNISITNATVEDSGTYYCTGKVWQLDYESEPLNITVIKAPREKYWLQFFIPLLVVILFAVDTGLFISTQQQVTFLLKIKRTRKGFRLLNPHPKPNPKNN
human immunoglobulin E (IgE), sequence (P01854 other isoform, or with tags, fused parts or gaps): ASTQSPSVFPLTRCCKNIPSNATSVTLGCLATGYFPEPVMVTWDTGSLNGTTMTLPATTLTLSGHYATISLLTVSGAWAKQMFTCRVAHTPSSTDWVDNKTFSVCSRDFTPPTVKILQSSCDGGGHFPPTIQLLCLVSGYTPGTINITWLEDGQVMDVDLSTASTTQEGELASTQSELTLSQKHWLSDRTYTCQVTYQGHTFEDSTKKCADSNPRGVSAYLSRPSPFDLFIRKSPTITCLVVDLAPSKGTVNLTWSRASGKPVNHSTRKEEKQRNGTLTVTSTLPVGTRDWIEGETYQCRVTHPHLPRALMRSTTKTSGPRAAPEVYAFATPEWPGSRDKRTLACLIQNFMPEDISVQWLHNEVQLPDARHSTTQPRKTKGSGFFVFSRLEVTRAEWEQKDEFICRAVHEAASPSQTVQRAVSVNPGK

“human immunoglobulin E (IgE) (from UniProt P01854 1-428) (antibody)” showed a percentage of pDCs displaying IgE bound to FcεR1 of 45.7%.

— US20220340687A1
